Test results taken from the supplement of paper PMC10567573.

B1: SPOPL (parent)
chain: PDDKLTLFCEVSVVQDSVNISGHT
B2: NCK2 (parent)
chain: YTGPSSSGRFAGREWYYGNVTRHQ

Variants of: B1
Assay: protein stability index of a GFP-peptide fusion (GPS, HEK-293T) (PSI 1-6); higher = more stable
Settings: c terminus: a fixed tail appended
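Further: lentivirally expressed fusions sorted by FACS into six bins by GFP to DsRed ratio, PSI derived from sequencing read proportions per bin multiplied by bin number.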

Protein stability index, by site and new letter:
H23: S 2.18, L 1.69, G 2.01, Q 2.3, N 2.6, I 2.41, K 2.21, E 3.21, P 2.26, A 2, T 2.44, W 5.02, D 3.06, C 2, R 2.71, V 2.03
S21: I 3.25, E 2.44, N 2.2, T 3.16, L 1.68, M 2.48, C 1.5, R 2.47, Q 3.3, D 3.2, Y 1.85, A 2.29, G 2.74, P 2.29, H 1.61
I20: V 2.55, W 2.04, Y 2.18
G22: S 2.05, Q 2.97, P 2.07, K 2.1, N 1.98, D 2.87, F 3.28, H 1.66, T 3.74, E 3.28, C 2.59, A 1.08
T24: M 2.39, W 3.64, H 2.4, K 3.16, N 2.97, D 2.46, A 1.54, Q 2.06, S 2.38, F 1.74, I 2.27, E 3.45, P 3.77, G 1.51

Variants of: B2
Assay: as above
Settings: c terminus: a fixed tail appended

Protein stability index of substitutions, site by site:
R9: T 1.44, P 2.14, I 3.13, C 2.09, H 1.45, F 4.5, E 2.5, D 1.81, N 1.69, G 2.17, A 1.56, M 3.36, V 1.85, S 1.38, K 1.46, Q 1.81, Y 1.73
T2: Y 2.67, K 2.27, V 2.32, H 1.88, G 2.44, C 2.06, M 2.62, I 1.79, F 2.04, Q 1.5, R 1.67, L 1.7, P 3.3, D 2.63, N 2.19, A 2.62, S 1.37, E 2.82, W 2.35
E14: D 1.4, L 1.68, I 1.58, P 1.87, V 2.56, A 1.57, R 2.58, N 1.78, S 1.67, W 1.92, F 1.95, K 2.03, M 1.64, Y 1.3, H 2.69, C 3.32, G 1.69, Q 2.09
P4: N 2.32, Q 1.26, K 2.4, A 2.13, F 1.82, L 1.64, M 2.37, E 2.31, W 1.71, H 2.48, T 1.9, D 1.56, R 3.61, G 1.99, S 1.79, Y 3.08, C 3.83, V 1.36, I 1.03
S5: Y 3.23, I 2.13, R 2.03, L 2.56, T 1.86, K 1.7, G 2.46, C 1.31, E 1.62, H 1.92, V 1.4, A 2.6, W 3.56, F 2.77, D 1.96, Q 1.97, M 2.96, N 1.95
R13: L 1.7, Q 2.44, D 2.09, A 1.61, E 2, H 2.75, K 2.02, N 1.91, M 1.63, P 1.97, I 2.64, T 1.81, S 2.03, G 2.21, C 3.48, Y 1.94, W 2.01, V 2.44, F 2.33
S6: D 1.91, T 1.93, Q 2.22, H 2.15, K 2.35, C 1.69, M 2.35, I 1.96, G 1.54, A 2.09, V 1.58, R 1.46, P 1.66, F 3.15, L 1.77, E 1.49, Y 2.13, N 1.78
A11: V 1.62, I 1.55, K 1.32, R 1.85, T 2.3, Q 2.21, F 4.19, H 2, D 1.95, W 3.03, L 2.02, E 2.04, N 2.34, P 1.25, S 2.2, M 1.48, Y 2.2, G 2.44
Y1: K 2.75, H 2.48, Q 2.96, N 2.73, P 3.8, M 2.57, R 2.55, L 2.3, D 3.3, G 2.46, F 1.47, A 3.25, V 2.93, E 3.28, S 2.12, C 2.01, W 2.66, T 3.08, I 2.08
W15: L 1.77, C 2.19, A 2.49, R 2.35, P 2.36, T 2.28, S 1.5, G 2.82, Q 2.36, M 2.18, K 2.22, D 2.83, I 1.71, F 2.19, N 2.73, H 2.66, E 2.52
G12: Q 2.09, K 2.32, A 1.73, I 2.66, E 1.49, H 2.26, C 2.81, W 1.9, P 1.42, L 2.25, M 1.75, T 2.17, R 1.98, F 2.45, D 2.44, S 1.52, V 1.84, N 3.14, Y 2.1
S7: H 1.85, A 1.71, T 2.68, L 2.11, G 1.82, C 3.63, V 1.46, F 1.59, R 1.82, N 1.47, E 2.32, D 1.59, K 2.08, M 1.58, Y 2.02, P 2.18, Q 2
F10: R 1.66, T 2.2, P 2.42, L 1.44, M 2.1, K 2.25, Q 1.84, E 2.95, H 2, V 2.13, N 2.13, I 1.89, W 3.07, S 2.11, A 2.14, C 1.44, G 2.35, D 1.93, Y 1.64
G8: Q 1.64, I 1.59, T 1.87, M 1.68, N 1.71, D 2.65, K 1.82, V 1.48, C 2.32, R 2.3, L 3.02, H 1.51, A 1.25, P 1.66, S 2.22, F 2.04, Y 2.22, E 2.32
G3: M 1.88, R 2.17, A 2.23, V 2.25, F 2.25, S 2.04, Q 1.78, H 1.71, W 2.99, K 2.08, E 2.34, D 2.38, L 1.81, P 1.56, Y 2.13, N 2.17, C 1.83, T 1.54, I 2.07
